Source: IntAct's records for PubMed 31515488

B1: Elongin-A2 (Homo sapiens), Q8IYF1 (parent)
chain: MAAGSTTLHAVEKLQVRLATKTEPKKLEKYLQKLSALPMTADILAETGIRKTVKRLRKHQHVGDFARDLAARWKKLVLVDRNTRPGPQDPEESASRQRFGEALQDQEKAWGFPENATAPRSPSHSPEHRRTARRTPPGQQRPHPRSHSREPRAERKCPRIAPADSGRYRASPTRTAPLRMPEGPEPAAPGKQPGRGHTHAAQGGPLLCPGCQGQPQGKAVVSHSKGHKSSRQEKRPLCAQGDWHSPTLIREKSCGACLREETPRMPSWASARDRQPSDFKTDKEGGQAGSGQRVPALEEAPDSHQKRPQHSHSNKKRPSLDGRDPGNGTHGLSPEEKEQLSNDRETQEGKPPTAHLDRTSVSSLSEVEEVDMAEEFEQPTLSCEKYLTYDQLRKQKKKTGKSATTALGDKQRKANESKGTRESWDSAKKLPPVQESQSERLQAAGADSAGPKTVPSHVFSELWDLSEAWMQANYDPLSDSDSMTSQAKPEALSSPKFREEAAFPGRRVNAKMPVYSGSRPACQLQVPTLRQQCAQVLRNNPDALSDVGEVPYWVLEPVLEGWRPDQLYRRKKDNHALVRETDELRRNHCFQDFKEEKPQENKTWREQYLRLPDAPEQRLRVMTTNIRSARGNNPNGREAKMICFKSVAKTPYDTSRRQEKSAGDADPENGEIKPASKPAGSSHTPSSQSSSGGGRDSSSSILRWLPEKRANPCLSSSNEHAAPAAKTRKQAAKKVAPLMAKAIRDYKRRFSRR
partner: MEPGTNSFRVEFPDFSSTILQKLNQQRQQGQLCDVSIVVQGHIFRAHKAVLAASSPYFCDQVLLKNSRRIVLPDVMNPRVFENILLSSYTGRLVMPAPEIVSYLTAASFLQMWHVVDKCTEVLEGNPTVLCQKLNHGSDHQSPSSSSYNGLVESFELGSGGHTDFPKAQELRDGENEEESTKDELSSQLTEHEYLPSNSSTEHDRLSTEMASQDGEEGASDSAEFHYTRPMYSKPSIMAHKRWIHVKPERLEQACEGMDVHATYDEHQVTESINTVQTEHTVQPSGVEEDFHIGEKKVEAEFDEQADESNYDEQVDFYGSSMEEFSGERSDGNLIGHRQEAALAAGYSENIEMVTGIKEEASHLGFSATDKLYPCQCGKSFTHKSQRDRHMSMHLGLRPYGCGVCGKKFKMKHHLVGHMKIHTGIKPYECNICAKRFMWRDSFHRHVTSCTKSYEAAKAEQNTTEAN
B2: Dynein light chain 2, cytoplasmic (Homo sapiens), Q96FJ2 (parent)
chain: MSDRKAVIKNADMSEDMQQDAVDCATQAMEKYNIEKDIAAYIKKEFDKKYNPTWHCIVGRNFGSYVTHETKHFIYFYLGQVAILLFKSG
partner: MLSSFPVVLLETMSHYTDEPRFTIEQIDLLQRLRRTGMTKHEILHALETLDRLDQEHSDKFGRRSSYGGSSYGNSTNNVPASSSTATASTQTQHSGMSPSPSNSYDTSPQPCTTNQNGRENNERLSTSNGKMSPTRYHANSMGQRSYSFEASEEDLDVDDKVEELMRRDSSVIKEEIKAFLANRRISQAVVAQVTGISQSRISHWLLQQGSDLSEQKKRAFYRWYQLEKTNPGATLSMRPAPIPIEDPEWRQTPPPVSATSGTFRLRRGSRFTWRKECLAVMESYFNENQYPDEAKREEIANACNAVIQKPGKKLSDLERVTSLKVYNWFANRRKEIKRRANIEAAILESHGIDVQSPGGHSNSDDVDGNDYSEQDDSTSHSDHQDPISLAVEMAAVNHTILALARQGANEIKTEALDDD
B3: Cysteine-rich C-terminal protein 1 (Homo sapiens), Q9UGL9 (parent)
chain: MSSQQSAVSAKGFSKGSSQGPAPCPAPAPTPAPASSSSCCGSGRGCCGDSGCCGSSSTSCCCFPRRRRRQRSSGCCCCGGGSQRSQRSNNRSSGCCSGC
partner: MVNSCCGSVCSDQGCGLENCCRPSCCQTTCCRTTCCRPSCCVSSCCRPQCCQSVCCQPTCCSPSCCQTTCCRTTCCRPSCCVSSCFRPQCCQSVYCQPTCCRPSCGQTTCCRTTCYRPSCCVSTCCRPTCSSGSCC
B4: Protein FAM13C (Homo sapiens), Q8NE31 (parent)
chain: MFSCFCFSLQDNSFSSTTVTECDEDPVSLHEDQTDCSSLRDENNKENYPDAGALVEEHAPPSWEPQQQNVEATVLVDSVLRPSMGNFKSRKPKSIFKAESGRSHGESQETEHVVSSQSECQVRAGTPAHESPQNNAFKCQETVRLQPRIDQRTAISPKDAFETRQDLNEEEAAQVHGVKDPAPASTQSVLADGTDSADPSPVHKDGQNEADSAPEDLHSVGTSRLLYHITDGDNPLLSPRCSIFSQSQRFNLDPESAPSPPSTQQFMMPRSSSRCSCGDGKEPQTITQLTKHIQSLKRKIRKFEEKFEQEKKYRPSHGDKTSNPEVLKWMNDLAKGRKQLKELKLKLSEEQGSAPKGPPRNLLCEQPTVPRENGKPEAAGPEPSSSGEETPDAALTCLKERREQLPPQEDSKVTKQDKNLIKPLYDRYRIIKQILSTPSLIPTIQEEEDSDEDRPQGSQQPSLADPASHLPVGDHLTYSNETEPVRALLPDEKKEVKPPALSMSNLHEATMPVLLDHLRETRADKKRLRKALREFEEQFFKQTGRSPQKEDRIPMADEYYEYKHIKAKLRLLEVLISKQDVAKTI
B5: E3 ubiquitin-protein ligase MYLIP (Homo sapiens), Q8WY64 (parent)
chain: MLCYVTRPDAVLMEVEVEAKANGEDCLNQVCRRLGIIEVDYFGLQFTGSKGESLWLNLRNRISQQMDGLAPYRLKLRVKFFVEPHLILQEQTRHIFFLHIKEALLAGHLLCSPEQAVELSALLAQTKFGDYNQNTAKYNYEELCAKELSSATLNSIVAKHKELEGTSQASAEYQVLQIVSAMENYGIEWHSVRDSEGQKLLIGVGPEGISICKDDFSPINRIAYPVVQMATQSGKNVYLTVTKESGNSIVLLFKMISTRAASGLYRAITETHAFYRCDTVTSAVMMQYSRDLKGHLASLFLNENINLGKKYVFDIKRTSKEVYDHARRALYNAGVVDLVSRNNQSPSHSPLKSSESSMNCSSCEGLSCQQTRVLQEKLRKLKEAMLCMVCCEEEINSTFCPCGHTVCCESCAAQLQSCPVCRSRVEHVQHVYLPTHTSLLNLTVI
partner: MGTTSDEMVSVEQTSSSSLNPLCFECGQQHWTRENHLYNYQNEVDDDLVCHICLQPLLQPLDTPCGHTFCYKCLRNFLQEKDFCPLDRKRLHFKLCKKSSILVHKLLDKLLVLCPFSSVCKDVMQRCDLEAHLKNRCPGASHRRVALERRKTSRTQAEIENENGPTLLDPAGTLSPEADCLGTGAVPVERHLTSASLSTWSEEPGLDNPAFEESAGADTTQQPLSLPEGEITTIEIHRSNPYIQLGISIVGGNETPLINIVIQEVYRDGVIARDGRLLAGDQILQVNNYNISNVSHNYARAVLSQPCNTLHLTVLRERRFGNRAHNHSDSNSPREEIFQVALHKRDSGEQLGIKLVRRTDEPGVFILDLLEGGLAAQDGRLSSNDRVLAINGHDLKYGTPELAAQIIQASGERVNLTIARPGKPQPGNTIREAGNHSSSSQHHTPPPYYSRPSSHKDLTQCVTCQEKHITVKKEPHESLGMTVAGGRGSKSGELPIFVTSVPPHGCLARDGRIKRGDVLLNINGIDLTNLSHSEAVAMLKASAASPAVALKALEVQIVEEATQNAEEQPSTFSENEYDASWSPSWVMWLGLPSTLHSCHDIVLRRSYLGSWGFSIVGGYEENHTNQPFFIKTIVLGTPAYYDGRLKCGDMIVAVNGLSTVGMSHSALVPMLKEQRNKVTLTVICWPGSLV

Variants of: B1
Conditions: with zbt43_human ZBTB43, O43298

| Variant | effect of a mutation on the interaction |
| --- | --- |
| D302H | with no effect |

Variants of: B2
Conditions: with hmbx1_human HMBOX1, Q6NT76

| Variant | effect of a mutation on the interaction |
| --- | --- |
| E30D | with no effect |

Variants of: B3
Conditions: with kra42_human KRTAP4-2, Q9BYR5

| Variant | effect of a mutation on the interaction |
| --- | --- |
| G20S | with no effect |

Variants of: B4
Conditions: with kif2a_human KIF2A

| Variant | effect of a mutation on the interaction |
| --- | --- |
| K97R | with no effect |

Variants of: B4
Conditions: with tfp11_human TFIP11, Q9UBB9
Sequence of tfp11_human TFIP11, Q9UBB9 (Q9UBB9 whole entry): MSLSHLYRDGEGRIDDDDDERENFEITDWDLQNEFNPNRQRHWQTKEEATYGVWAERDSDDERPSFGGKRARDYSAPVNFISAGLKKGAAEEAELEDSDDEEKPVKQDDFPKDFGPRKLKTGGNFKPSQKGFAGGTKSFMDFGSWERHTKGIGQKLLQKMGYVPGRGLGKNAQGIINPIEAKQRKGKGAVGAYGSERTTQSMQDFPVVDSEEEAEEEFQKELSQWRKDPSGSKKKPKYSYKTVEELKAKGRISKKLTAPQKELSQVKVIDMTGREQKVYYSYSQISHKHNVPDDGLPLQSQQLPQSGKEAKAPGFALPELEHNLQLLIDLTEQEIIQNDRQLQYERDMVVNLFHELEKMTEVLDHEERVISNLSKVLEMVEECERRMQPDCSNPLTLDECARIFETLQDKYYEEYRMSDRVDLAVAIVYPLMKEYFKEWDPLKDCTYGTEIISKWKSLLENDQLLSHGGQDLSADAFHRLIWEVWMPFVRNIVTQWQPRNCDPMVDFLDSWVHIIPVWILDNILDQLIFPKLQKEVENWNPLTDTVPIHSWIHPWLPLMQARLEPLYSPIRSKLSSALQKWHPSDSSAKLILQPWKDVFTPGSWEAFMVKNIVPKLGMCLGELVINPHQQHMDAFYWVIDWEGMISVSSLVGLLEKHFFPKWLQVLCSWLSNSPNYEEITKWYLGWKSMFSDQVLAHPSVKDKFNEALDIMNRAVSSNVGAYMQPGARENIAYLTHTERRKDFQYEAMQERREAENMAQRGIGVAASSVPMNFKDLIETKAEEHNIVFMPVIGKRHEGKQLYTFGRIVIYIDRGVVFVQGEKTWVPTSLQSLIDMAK

| Variant | effect of a mutation on the interaction |
| --- | --- |
| P147S | with no effect |

Variants of: B5
Conditions: with lnx2_human LNX2, Q8N448

| Variant | effect of a mutation on the interaction |
| --- | --- |
| N342S | with no effect |
